These results are taken from IntAct's records for PubMed 32296183.

Sequences and labels used below:
B1: Golgi SNAP receptor complex member 2 (Homo sapiens), O14653 (parent)
chain: MDPLFQQTHKQVHEIQSCMGRLETADKQSVHIVENEIQASIDQIFSRLERLEILSSKEPPNKRQNARLRVDQLKYDVQHLQTALRNFQHRRHAREQQERQREELLSRTFTTNDSDTTIPMDESLQFNSSLQKVHNGMDDLILDGHNILDGLRTQRLTLKGTQKKILDIANMLGLSNTVMRLIEKRAFQDKYFMIGGMLLTCVVMFLVVQYLT
partner: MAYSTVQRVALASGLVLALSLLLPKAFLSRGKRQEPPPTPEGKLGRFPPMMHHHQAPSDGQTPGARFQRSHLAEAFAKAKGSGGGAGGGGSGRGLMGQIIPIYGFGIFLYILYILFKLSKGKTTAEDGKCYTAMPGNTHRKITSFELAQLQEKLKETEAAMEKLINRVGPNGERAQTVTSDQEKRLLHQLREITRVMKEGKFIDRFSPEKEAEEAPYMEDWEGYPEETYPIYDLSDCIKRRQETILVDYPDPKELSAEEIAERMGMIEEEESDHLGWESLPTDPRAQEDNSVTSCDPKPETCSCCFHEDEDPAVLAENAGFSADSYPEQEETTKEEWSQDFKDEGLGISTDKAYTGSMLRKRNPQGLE
B2: Golgi SNAP receptor complex member 2 (Homo sapiens), O14653 (parent)
chain: B1 chain
partner: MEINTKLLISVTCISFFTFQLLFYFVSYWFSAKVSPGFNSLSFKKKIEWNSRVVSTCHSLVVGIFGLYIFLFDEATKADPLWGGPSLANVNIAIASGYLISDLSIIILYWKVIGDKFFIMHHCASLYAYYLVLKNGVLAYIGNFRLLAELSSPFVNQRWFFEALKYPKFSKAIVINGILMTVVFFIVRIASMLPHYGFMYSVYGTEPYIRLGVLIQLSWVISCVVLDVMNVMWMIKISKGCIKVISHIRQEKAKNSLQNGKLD
B3: Catenin alpha-3 (Homo sapiens), Q9UI47-2 (parent)
chain: MSAETPITLNIDPQDLQVQTFTVEKLLEPLIIQVTTLVNCPQNPSSRKKGRSKRASVLLASVEEATWNLLDKGEKIAQEATVLKDELTASLEEVRKESEALKVSAERFTDDPCFLPKREAVVQAARALLAAVTRLLILADMIDVMCLLQHVSAFQRTFESLKNVANKSDLQKTYQKLGKELENLDYLAFKRQQDLKSPNQRDEIAGARASLKENSPLLHSICSACLEHSDVASLKASKDTVCEEIQNALNVISNASQGIQNMTTPPEPQAATLGSALDELENLIVLNPLTVTEEEIRPSLEKRLEAIISGAALLADSSCTRDLHRERIIAECNAIRQALQDLLSEYMNNAGKKERSNTLNIALDNMCKKTRDLRRQLRKAIIDHVSDSFLDTTVPLLVLIEAAKNGREKEIKEYAAIFHEHTSRLVEVANLACSMSTNEDGIKIVKIAANHLETLCPQIINAALALAARPKSQAVKNTMEMYKRTWENHIHVLTEAVDDITSIDDFLAVSGMFLFF
partner: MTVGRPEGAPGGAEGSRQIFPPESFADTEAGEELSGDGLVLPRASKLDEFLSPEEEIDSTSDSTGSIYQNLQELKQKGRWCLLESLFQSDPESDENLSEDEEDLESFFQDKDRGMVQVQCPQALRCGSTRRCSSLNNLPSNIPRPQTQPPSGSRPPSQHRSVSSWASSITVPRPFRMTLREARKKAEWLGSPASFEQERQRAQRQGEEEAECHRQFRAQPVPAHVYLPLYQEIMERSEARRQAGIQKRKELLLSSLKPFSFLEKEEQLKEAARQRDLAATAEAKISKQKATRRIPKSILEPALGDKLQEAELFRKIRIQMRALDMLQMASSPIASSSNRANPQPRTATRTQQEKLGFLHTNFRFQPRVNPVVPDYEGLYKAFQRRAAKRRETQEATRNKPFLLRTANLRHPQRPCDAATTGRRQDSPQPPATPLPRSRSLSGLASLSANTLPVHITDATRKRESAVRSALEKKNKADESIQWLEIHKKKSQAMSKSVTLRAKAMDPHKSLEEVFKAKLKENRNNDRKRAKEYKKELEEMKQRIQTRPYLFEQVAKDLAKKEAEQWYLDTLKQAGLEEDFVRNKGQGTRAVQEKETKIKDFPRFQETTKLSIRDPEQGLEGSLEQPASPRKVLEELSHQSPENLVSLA
B4: Catenin alpha-3 (Homo sapiens), Q9UI47-2 (parent)
chain: B3 chain
partner: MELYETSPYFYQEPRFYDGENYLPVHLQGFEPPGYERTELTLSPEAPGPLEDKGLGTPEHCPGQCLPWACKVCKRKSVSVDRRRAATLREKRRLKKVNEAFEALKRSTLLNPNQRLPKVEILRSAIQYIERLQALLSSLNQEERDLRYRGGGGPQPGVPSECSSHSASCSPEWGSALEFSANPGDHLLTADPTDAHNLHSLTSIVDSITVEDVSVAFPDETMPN
B5: Golgi SNAP receptor complex member 2 (Homo sapiens), O14653 (parent)
chain: B1 chain
partner: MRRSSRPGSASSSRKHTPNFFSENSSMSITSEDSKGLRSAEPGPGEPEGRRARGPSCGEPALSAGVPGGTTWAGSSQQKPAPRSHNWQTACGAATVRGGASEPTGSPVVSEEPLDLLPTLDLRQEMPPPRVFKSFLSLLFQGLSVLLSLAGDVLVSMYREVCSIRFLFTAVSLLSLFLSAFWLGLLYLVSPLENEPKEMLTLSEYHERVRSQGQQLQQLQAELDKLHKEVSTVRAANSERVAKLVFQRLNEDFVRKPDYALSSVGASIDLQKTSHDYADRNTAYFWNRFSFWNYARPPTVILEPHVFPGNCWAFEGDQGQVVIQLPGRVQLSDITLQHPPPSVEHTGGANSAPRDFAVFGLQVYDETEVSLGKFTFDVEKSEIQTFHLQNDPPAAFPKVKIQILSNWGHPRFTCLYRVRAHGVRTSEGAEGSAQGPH
B6: Very-long-chain enoyl-CoA reductase (Homo sapiens), Q9NZ01 (parent)
chain: MKHYEVEILDAKTREKLCFLDKVEPHATIAEIKNLFTKTHPQWYPARQSLRLDPKGKSLKDEDVLQKLPVGTTATLYFRDLGAQISWVTVFLTEYAGPLFIYLLFYFRVPFIYGHKYDFTSSRHTVVHLACICHSFHYIKRLLETLFVHRFSHGTMPLRNIFKNCTYYWGFAAWMAYYINHPLYTPPTYGAQQVKLALAIFVICQLGNFSIHMALRDLRPAGSKTRKIPYPTKNPFTWLFLLVSCPNYTYEVGSWIGFAIMTQCLPVALFSLVGFTQMTIWAKGKHRSYLKEFRDYPPLRMPIIPFLL
partner: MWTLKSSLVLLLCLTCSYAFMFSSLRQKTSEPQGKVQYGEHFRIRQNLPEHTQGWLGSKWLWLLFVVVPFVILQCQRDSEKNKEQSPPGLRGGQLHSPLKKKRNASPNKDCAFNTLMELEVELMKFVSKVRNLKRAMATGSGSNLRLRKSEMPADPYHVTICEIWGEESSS
B7: Catenin alpha-3 (Homo sapiens), Q9UI47-2 (parent)
chain: B3 chain
partner: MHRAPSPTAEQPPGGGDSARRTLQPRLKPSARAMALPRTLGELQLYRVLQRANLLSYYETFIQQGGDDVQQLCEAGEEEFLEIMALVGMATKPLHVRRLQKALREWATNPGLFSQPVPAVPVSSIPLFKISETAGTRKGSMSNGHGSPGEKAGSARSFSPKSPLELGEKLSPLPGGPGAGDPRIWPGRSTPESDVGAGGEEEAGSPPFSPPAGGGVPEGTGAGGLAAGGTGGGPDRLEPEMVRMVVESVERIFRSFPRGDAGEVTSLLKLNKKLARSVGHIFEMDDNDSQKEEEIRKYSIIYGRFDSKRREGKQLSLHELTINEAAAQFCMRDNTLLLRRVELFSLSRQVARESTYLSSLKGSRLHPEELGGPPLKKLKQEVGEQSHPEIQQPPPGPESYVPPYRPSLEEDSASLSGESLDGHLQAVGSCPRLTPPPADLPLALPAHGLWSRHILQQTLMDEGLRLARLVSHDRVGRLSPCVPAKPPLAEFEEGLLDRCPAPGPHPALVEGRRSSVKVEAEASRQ
B8: Succinate--CoA ligase [ADP-forming] subunit beta, mitochondrial (Homo sapiens), Q9P2R7 (parent)
chain: MAASMFYGRLVAVATLRNHRPRTAQRAAAQVLGSSGLFNNHGLQVQQQQQRNLSLHEYMSMELLQEAGVSVPKGYVAKSPDEAYAIAKKLGSKDVVIKAQVLAGGRGKGTFESGLKGGVKIVFSPEEAKAVSSQMIGKKLFTKQTGEKGRICNQVLVCERKYPRREYYFAITMERSFQGPVLIGSSHGGVNIEDVAAESPEAIIKEPIDIEEGIKKEQALQLAQKMGFPPNIVESAAENMVKLYSLFLKYDATMIEINPMVEDSDGAVLCMDAKINFDSNSAYRQKKIFDLQDWTQEDERDKDAAKANLNYIGLDGNIGCLVNGAGLAMATMDIIKLHGGTPANFLDVGGGATVHQVTEAFKLITSDKKVLAILVNIFGGIMRCDVIAQGIVMAVKDLEIKIPVVVRLQGTRVDDAKALIADSGLKILACDDLDEAARMVVKLSEIVTLAKQAHVDVKFQLPI
partner: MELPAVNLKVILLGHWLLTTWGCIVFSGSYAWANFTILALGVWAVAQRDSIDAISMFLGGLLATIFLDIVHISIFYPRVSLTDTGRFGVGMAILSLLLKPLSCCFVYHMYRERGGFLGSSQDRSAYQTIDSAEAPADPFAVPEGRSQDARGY
B9: Very-long-chain enoyl-CoA reductase (Homo sapiens), Q9NZ01 (parent)
chain: B6 chain
partner: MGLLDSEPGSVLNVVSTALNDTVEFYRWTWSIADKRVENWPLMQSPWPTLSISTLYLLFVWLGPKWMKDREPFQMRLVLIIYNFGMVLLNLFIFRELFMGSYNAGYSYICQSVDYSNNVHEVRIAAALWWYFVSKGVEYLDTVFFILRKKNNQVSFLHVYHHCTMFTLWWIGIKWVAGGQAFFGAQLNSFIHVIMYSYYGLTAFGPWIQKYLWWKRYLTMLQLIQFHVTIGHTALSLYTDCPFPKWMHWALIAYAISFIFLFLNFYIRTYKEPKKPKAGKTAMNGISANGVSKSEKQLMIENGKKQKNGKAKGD

The first assay covers variants of B1. Conditions: with RIC3, Q7Z5B4-5.
For the variant G144W, the “effect of a mutation on the interaction” value is “disrupting interaction strength”.

The next assay covers variants of B2. Conditions: with tlcd4_human TLCD4, Q96MV1.
Consider G144W, for which the “effect of a mutation on the interaction” value is reported as “with no effect”.

Variants of B3 are the subject of a further assay. Conditions: with FAM161B.
As for V94D, the “effect of a mutation on the interaction” value is on record as “with no effect”.

In the next assay the parent is B4. Conditions: with myog_human MYOG.
For V94D, the “effect of a mutation on the interaction” value was “disrupting interaction strength”.

The variants in another assay derive from B5. Conditions: with spag4_human SPAG4, Q9NPE6.
On to G144W, for which the “effect of a mutation on the interaction” value is given as “with no effect”.

Another assay covers variants of B6. Conditions: with FAM209A.
Take P182L: the “effect of a mutation on the interaction” value is recorded as “disrupting interaction strength”.

The variants in a further assay derive from B7. Conditions: with nab2_human NAB2, Q15742.
On to V94D, for which the “effect of a mutation on the interaction” value is recorded as “disrupting interaction strength”.

The variants in the next assay derive from B8. Conditions: with AGTRAP.
For G118R, the “effect of a mutation on the interaction” value was “disrupting interaction strength”.

With D251N, the “effect of a mutation on the interaction” value is on record as “disrupting interaction strength”.

Variants of B9 are the subject of the next assay. Conditions: with elov4_human ELOVL4, Q9GZR5.
As to P182L, the “effect of a mutation on the interaction” value is “disrupting interaction strength”.
